assay: yeast display, Sf9 membrane polyspecificity reagent, FACS + sequencing; frameworks hold sequencing errors
Summary of the method: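 Using colony PCR, genes from sorted yeast display clones were amplified, then sequenced on MiSeq at 2 × 250 and filtered by CDR length. The clones had been stained with 10% biotinylated, detergent-solubilized Sf9 membrane reagent for 1 hour at 4 °C and sorted by FACS into low and high (top ~1%) gates on anti-HA and streptavidin fluorescence. Polyreactivity labels come from the gate of origin.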

Row | Sequence | polyreactivity (PSR sort gate)
1 | QVQLVESGGGLVQAGGSLRLSCAASGSTFGRNALGWYRQAPGKERELVASISWGGGSTYYADSVKGRFTISRDNAKNTVYLQMNSLKPEDTAVYYSNARRFLWSQLSGSFSYDYWGQGTQVTVSS | high polyreactivity
2 | QVQLVESGGGLVQAGGSLRLSCAASGFTFRWYAMGWYRQAPGKERELVAAISSGGGSTYYADSVKGRFTISRDNAKNTVYLQMNSLKPEDTAVYYCNARIQYFKYRGYEYWGQGTQVTVSS | high polyreactivity
3 | QVQLVESGGGLVQAGGSLRLSCAASGRIFYYYAMGWYRQAPGKERELVAAITWSGVNTYYADSVKGRFTISRDNAKNTVYLQMNSLKPEDTAVYYCATDTGYPYSYDLYDSYYWGQGTQVTVSS | low polyreactivity
4 | QVQLVESGGGLVQAGGSLRLSCAASGSILRQYAMGWYRPAPGKERELVAAINSGGSTNYADSVKGRITISRDNAKNTVYLQMNSLKPEDTAVYFCAADWSLYSHEFDYWGQGTQVTVSS | high polyreactivity
5 | QVQLVESGGGLVQAGGGLRLSCAASGRIFSPYAMGWDRQSPGKEMELVAAIRRSGVDTYYADSVKGRFTISRDNAKNTVYLQINSLKPEDTAVYYCAADPYWFFPHYDSWGQGTQVTVSS | low polyreactivity
6 | QVQLVESGGGLVQAGGSLRLSCAASGFTFTPNAMGWYRQAPGKERELVAAITSDGTTYYADSVKGRFTISRDNAKNTVYLQMNSLNPEDTAVYYCAADGGISAGANSGYDYWGQGTQVTVSS | high polyreactivity
7 | QVQLVESGGGLVQAGGILRLSCAASGRIFTSNPMGWYRQAPGKEREFVAAISGSGDGTYYADSVKGRFTISRDTAKNTVYLQMNSLKPEDTAVYYCAARRRGTYPYPMGYWGQGTQVTVSS | high polyreactivity
8 | QVQLVESGVGLVQAGGSLRLSCAASGSIFYHYVMGWYRQAPGKERELVAGISWSGVSTYYADSVKGRFTISRDNAKNTVYLQMNSLKPEDTADYYCAAVYRQSRLHTFGYWGQGTQVTVSS | high polyreactivity
9 | QVQLVESGGGLVQAGGSLRLSCAASGSTLYKYAMGWYRQAPGKERELVATITRTDSTNYADSVKGRFTISRDNAKNTVYLQMNSLKPEDTAVYYCNRGFDWWYRYRHYDYWGQGTQVTVSS | low polyreactivity
10 | QVQLVESGGGIVQAGGSLRLSCAASGFTFFIYTMGWYRQAPGKERELVAAIRSRTGSTYYADSVKGRITISRDNAKNTVYLQMNSLKPDDTAVYYCAATRVRSASYSIEYDYWGQGTQVTVSS | high polyreactivity
11 | QVQLVESGGGLVQAGGSLRLSCAASGGTFNRYAMGWYRQAPGKERELVAAISNGGGRTYYADSVKGRFTISRDNAKNTVYLQMNSLKPEDTAVYYCAKDLTRTSYRSAFDYWGQGTQVTVSS | high polyreactivity
12 | QVQLVESGGGLVQAGGSLRLSCAASGFTLEDYTMGWYRQAPGKERELVARITSGGSTNYADSVKGRFTISRDNAKNTVYLQMNSLKPEDTAVYYCNARYAWINMDYWGQGTQVTVSS | low polyreactivity
13 | QVQLVESVGGLVQAGGSLRLSCAASGSIFWPNAMGWYRQAPGKERELVATISGSGGSTYYADSVKGRFTISRDNAKNTVYLQMNSLKPEDTAVYYCAADYRYGRYDYWGQGTQVTVSS | high polyreactivity
14 | QVQLVESGGGLVQAGGSLRLSCAASGSTFYPYAMGWYRQATGKERELVAAISYSGGSKYYADSVKGRFTISRDNAKNTVYLQMNSLKPEDTAVYYCAAYYRVYGASYDYWGQVTQVTVSS | high polyreactivity
15 | QVQLVESGGGLVQAGGRLRLSCAASGRTFAYYAMGWSRQAPGKERELVAAITRGGSTYYADSVKGRFTISRDNAKNTVYLQMNSLKPEDTAVYYCAAATSPYQDDYWGQGTQVTVSS | low polyreactivity
16 | QVQLVESGGGLVQAGGSLRLSCAASGITFDDYDMGWYRQAPGKERELVAAISWSGGSTYYADSVKGRFTISRDNAKTTVYLQMNSLKPEDTAVYYCAAEVIWWVREYYYWGQGTQVTVSS | low polyreactivity
17 | QVQLVESGGGLVQAGGSLRLSCAASGGIFRRYPMGWYRQATGKERELVAAISKRGGSTYYADSVKGRFTISRDNAKNTVYLQMNSLKPEDTAFYYCAKQRGGQPRSSTYYYWGQGTQVTVSS | high polyreactivity
18 | QVQLVESGGGLVQAGGSLRLSCAASGRIFRTYAMGWYRQAPGKERELVAAINSGGTTYYADSVKGRFTISRDNAKNTVYLQMNSLKPEDTAVYYCNAEYYYAFLRLWYDYWGQGTQVTVSS | high polyreactivity
19 | QVQLVESGGRLVQAGGSLRLSCAASGSTFVQNAMGWYRQATGKERELVAAISKSGGRTYYADSVKGRFTISRDNAKNTVYLQMNSLKPEDTAVYYCAAVTVASPTRMDYWGQGTQVTVSS | high polyreactivity
20 | QVQLVESGGGLVQAGGSLRLSCAASGRTFLRYAMGWYRQAPGKERELVAAITSSGGSTFYADSVKGRFTISRDNAKNTVYLQMNSLKPEDSAVYYCAASVGRGYYWGQGTQVTVSS | high polyreactivity
21 | QVQLEESGGGLVQEGGSLRLSCAASGSTFVTYAMGWYRPSPGKARELVAAISQSGGSTYYADSVKGRFTISRDNAKNTVYLQMNSLKPEDSAVYYCAAEYWDIAYCFVWWIYDYWGQGTLVTVSS | high polyreactivity
22 | QVQLVESGGGLVQAGGSLRLSCAASGFTLRTYAMGWYRQAPGKERELVAAITVSGGTYYADSVKGRFTISRDNAKYTVYLQMNSLKPEDTAVYYCTAKRFGTGFDYWGQGTQVTVSS | low polyreactivity

Row | Sequence | polyreactivity (PSR sort gate)
23 | QVQLVESGGGIVQAGGSLRLSCAASGLIFSRYTMGWYRQAPAKEMELVAAISGRGTSTYYAYSVKGRFTISRDNAKNTVYLLMNSLKPEDTAVYYCATSKSYSAFDYWGQGTQVTVSS | high polyreactivity
24 | QGQLVESGGGLVQAGGSLRLSCAASGRIFGHYAMGWYRQAPGKERELVAAISQSGTNTYYADSVKGRFTISRDNAKNTVYLQMNSLKPEDTAVYYCAAKPPRRYQLMDYWGQGTQVTVSS | high polyreactivity
25 | QVQLVETGGRIVQAGGSLRLSCAASGRIMDTNAMGWYRQAPGKEREFVAAITWIDGSTYYADSVKGRFTISRDNATNTVYLQMNSLKPEDTAVYYWNVQYTVDRYPSPPYSETGDYWGQGTQVTVSS | low polyreactivity
26 | QVQRVESWGGLVQAGGSLRLSCAASGFTFSDNAMGWYRQAPGKERELVAAISRRGGSTYYADSVKGRFTISRDNAKNTVYLQMNSLKPEVTAVYYCAAVRASSKVHTRTYDYWGQGTQVTVSS | high polyreactivity
27 | QVQLVESGGGLVQAGGSLRLSCAASGFIFGGYAMGWYRQAPGKEREFVAAIRQRGGSTYYADSVKGRFTISRDNAKNTVYLQMNSLKPEDTAVYFCAATVRAVQASVRYGYWGQGTQVTVSS | high polyreactivity
28 | QVQLVESGGGLVQAGGSLRLSCAASGRIFGCYAMGWYRQAPGKERELVAAISSGGNTKYADSVKGRFTISRDNAKNTVYLQMNSLKPEDTAVYYCAAKFAQPDYRYDYWGQGTQVTVSS | high polyreactivity
29 | QVQLVESGGGLVQAGGSLRLSCAASGLILYTYAMGWYRQAPGKERELVAAINSGGRTYYADSVKGRFTISRDNAKNTVYLQMNSLKPEDTAVYYCAADYGSRVRGFNYWGQGTQVTVSS | low polyreactivity
30 | QVQLVESGGGLVQAGGSLRLSCAASGRTFVYYAMGWYRQAPGKERELVASISSGGGSTNYADSVKGRFTISRDNAKNTVYLQMNSLKPEDTAVYYCAVDTPRYRYYRTSYDYWGQGTQVTVSS | low polyreactivity
31 | QVQLVESGGGLVQAGGSLRLSCAASGRIFYVYAMGWYRQAPGKEREFVAAITRRSGSTYYADSVKGRFTISRDNAKNTVYFQMKSVKPEDTAVYSCNARLKYAIPQVPPYDYWGQGTQVTVSS | high polyreactivity
32 | QVQLVESGGGLVQAGGSLRLSCAASGFIFGSNAMGWYRQAPGQERELVAAIDSSGGRTNYADSVKGRFTISRDNAKNTVYLQMNSLKPEDTAVYYCNVYRWSQLFEYDYWGQGTQVTVSS | high polyreactivity
33 | QVQLVESGGGIVQAGGSLRLSWAASGFIFNNYAMGWYRQAPGKERELVAAITGGGSTNYADSVKGRFTISRDNAKNTVYLQMNSLKPEDTAVYYCNAEGVWWSTRYDSWGQGTQVTVSS | low polyreactivity
34 | QVQLVESGGGLVQAGGSLRLSCAASGRTFAYYAMGWYRQAPGKERELVAAITQSGGRTYYADSVKGRFTISRDNAKNTVYLQMNSLKPEDTAVDYCAARRISGKWEYDYWGQGTQVTVSS | high polyreactivity
35 | QVQLVESGGGLVQAGGSLRLICAASGSTFASYAMGWYRQAPGKERELVAAITRRGGSTYYADSVKGRFTISRDNAKNTVYLQMNSLKPEDTAVYYCAAKWTPATYKFDYWGQGTQVTVSS | high polyreactivity
36 | QVQLVESGGGLVQAGGSLRLSCAASGRIFCSYTMGWYRQAPGKERELVAAISWRGGSTYYADSVKGRFTISRDNAKNTVYLQMNSLKPEDTAVYYCAADSRSPPGDYWGQGTQVTVSS | low polyreactivity
37 | QVQLVESGGGLVQAGGSLRLSCAASGSTFWGNAMGWYRPAPGKERELVAAISNGGSTNYADSVKGRFTISRDNAKNTVNLQMNSLKPEDTAVYYCAADGHTSNGVSLHGYWGQGTQVTVSS | low polyreactivity
38 | QVQLVESGGGLVQAGGSLRLSCAASGRTFYRNAMGWYRQAPGKERELVAAIRTRTGSTYYADSVKGRFTISRDNAKNTVYLQRNSLKPEDTAVYYCNASPYVNGRYGSWGQGTQVTVSS | high polyreactivity
39 | QVQHVESGGGLVQAGGSLRLSCAASGSIFSFNAMGWYRQAPGKERELVASISRNGGSTYYADSVKGRFTISRDNAKNTVYLQMNSLKPEDTAVYYCAVKVRNRRYGYWGQGTQVTVSS | high polyreactivity
40 | QVQLVESGGGLVQAGGSLRLSCAASGSTFGFYAMGWYTHAPGKERELVAGITRVGSTNYADSVKGRFTISRDNAKNTVYLQMNSLKPEVTAVYYCNRRYTPYTWPYGYWGQGTQVTVSS | high polyreactivity
41 | QGHREESGGGLVQAGGSLRLSCAASGSTFGIYALGWYIQEQGKERELVAAITWSGSSTYYADSVKGRFTISRDNAKNNVYLQINSLKPEDTAVYYCAAEDTLYEYYYWGQGTQVTVSS | high polyreactivity
42 | QVQLVESGGGLVQAGGSLRLSCAASGFTIYKNAMAWYRQAPGKERELVAAISGRGGSTTYADSVKGRFTISRDNAKNTVYLQMNSLKPEDTAVYYCAARFTYSYPLFGSWGQGTQVTVSS | high polyreactivity
43 | QVQLVESGGGLVQAGGSLRLSCAASGRTFGTYAMGWSRQAPGKERELVASITWSGTSTYYADSVKGRFTISRDNAKNTVYLQMNSLKPEDTAVYYCAAGWGYYRYYYWGQGTQVTVSS | high polyreactivity

Reference: the nanobody polyreactivity screen of Harvey et al. (2022)
